Assay results: the DeepSol protein solubility set

Assay: soluble on expression in E. coli; label from the status in PepcDB or PDB records

| Sequence | soluble on expression in E. coli |
| --- | --- |
| MHECKTVTLRTRPLKGRMMSFYLDYYPGYRDKETMKVIRHESLGIYIYANPRNKREQNFNEVMTEKAEAIRCRRFESVVNERYDFFDKYKLKADFLEYYRKQLRKHDQKWEFVYLHFNNFVHGKCTFEEIDIDLCNKFREYLLSAKKLRRNGRITRNSASGYWSTFRGFLKILYRNGMIKTNVNDFLEKIETEDVMKEALSVEELYKLAETPCKKPILKTASLFSCMTSLRISDILSLCWEDIVDYSAGGKCVHIITQKNKAEDIIPISEEALGLIGYSSEKKGLVFKGLMRSWTQIPMKEWI | not soluble |
| MGSDKIHHHHHHMTKHMTMKTPPIVSRQEWDAAREKMLVKEKATLRAKDALAAERRRMPWMEVDKAYVFEGPNGKASLLDLFEGRRQLIVYRAFFEPGVYGWPDHACRGCSLGADQVGHLAHLNARNTTLAYASRAPQADIVRLKARMGWEMPWYTITDSFDKDFGVDEWHGHNVFIHDGDRVFRTYLINSRGDEQMGTVWSYLDATPLGRQEIWEDSPEGYPQTPLYSWWNWHDNYEAGADKKWAEVAAAGEAAFRDKGE | not soluble |
| MSLNSTQMNKQVIDKYTQRHELYLEQLLNEIIIPAPQIRSALHYALFSGGKRIRPILVYLAGDLIDVDQGVLDIIAAALELTHCYSLIHDDLPAMDNDDLRRGKPSCHKAFDEATAILVGDGMQALAIEVLLMRLSPLLPAAQVVAITQVLVNASGISGMVSGQSLDLSELAKSSVTEEQLREIHLLKTGKLILACFEMVLAAQHEVSEQIKSALRTYGKHIGLVFQMQDDYLDLYAPTQILGKGRSSDQANQKTTFATLFNKQQLEEEIAVHYQIAMDSLRLFGSKAAALIELTKQLQNRSNLSEGHHHHHH | soluble |
| GHHHHHHAIAENLYFQSETSETDSTGNTQTCETRQTRSNSWTAWGIHAISTITDGAKQLYTKALGLDELEEKKLEDEEGVTHVEVDEKTKRDLWNQLSTLVGADVINMRLSLPVWLFEPTTALQRMCETLQFHQLLDMAATCEEPVERDALVAAFTVSAFAHTERVYKPFNPVLGETFEWTSRDGTTRVLCEQVSHHPPVSVSYTEGPGWVAQEVFSCNAYFLGNSVEIRNTGSRYVYLTSFDERYEWTLPVSAAQNLFVGGSFIDHYGELILRSSPRGSVTSLTFTKCGWFGRGRYAVNGDIVDADGYRVMELSGEWNRGLVGFRLDKSSGERVDAKSLWYAGEHKPAVKRDKYNFTNFTYELLEVPDNAESIIPPTDSRFRPDRRALEGNNLSLANLEKVRVENIQRERENQRQKTGTTYVPAWFYQDDNNEWHFGGKYWKETRNMSEDQKEQMKLW | not soluble |
| MNTVRSEKDSMGAIDVPADKLWGAQTQRSLEHFRISTEKMPTSLIHALALTKRAAAKVNEDLGLLSEEKASAIRQAADEVLAGQHDDEFPLAIWQTGSGTQSNMNMNEVLANRASELLGGVRGMERKVHPNDDVNKSQSSNDVFPTAMHVAALLALRKQLIPQLKTLTQTLNEKSRAFADIVKIGRTHLQDATPLTLGQEISGWVAMLEHNLKHIEYSLPHVAELALGGTAVGTGLNTHPEYARRVADELAVITCAPFVTAPNKFEALATCDALVQAHGALKGLAASLMKIANDVRWLASGPRCGIGEISIPENEPGSSIMPGKVNPTQCEALTMLCCQVMGNDVAINMGGASGNFELNVFRPMVIHNFLQSVRLLADGMESFNKHCAVGIEPNRERINQLLNESLMLVTALNTHIGYDKAAEIAKKAHKEGLTLKAAALALGYLSEAEFDSWVRPEQMVGSMKAGRHHHHH | soluble |
| MGSDKIHHHHHHVYQDLSRFSMPADFRGKPGWYVQLWWVVQALLFHPSPQIMYGWRRLLLRAFGAQIGKGVIIRPSAQITYPWKLAIGDYAWIGDEVVLYTLGNITIGKNAVVSQRSYICTGSHDFKKEAFDIFSKPIIIDDECWLATDVFVGPGVKISKGIVIGARSSVYKNIEATPGIYTGNPATRVGDR | not soluble |
| AIAFRSVLVEAAVRVESPLLAHRLEDALLHACKQRFCSRILPSLGVCLTALRICKLVDGAGKQLALEIWPVEVSGGGLRARVHVELLLWSPLPHELAFAQVRSCSRFGIRLSILNGFDYAFVPPGSMPEPCTYHEEQRCWSWRFNEDDFVIGEGDWVRVLIERVEYATDSAMATFDSPGTVGSGPPLHILPPPVPVGRTVMETDQANATPGAHPEHAPPLETEPPEFWETPSILPLRVWARLDAPGLGPIDWWS | soluble |
| MPVTNMAELDAMIARVKKAQEEFATYSQEQVDKIFRAASLAANQARIPLAQQAVEESGMGIVEDKVIKNHFASEFIYNKYKDEQTCGILEEDDNLGTMTIAEPVGIICGIVPTTNPTSTAIFKSLISLKTRNGIIFSPHPRAKNSTNDAAKLVLDAAVAAGAPKDIIGWIDQPSVELSNALMKHDDIALILATGGPGMVKAAYSSGKPAIGVGAGNVPVVIDETADIKRAVASVLMSKTFDNGVVCASEQAVIVVDEVYDEVKERFASHKAHVLSKTDADKVRKVLLIDGALNAKIVGQPATAIAEMAGVKVPADTKVLIGEGLGKVSYDDAFAHEKLSPTLGMFRADNFEDAVAQAVTMVEIGGIGHTSGLYTNQDVNADRIRYFGDKMKTARILINIPTTHGGIGDLYNFNVAPSLTLGCGSWGGNSISENVGPKHLINKKTVAKRAENM | soluble |
| MSLKAIGFEQPFKLSDGNLFKTFNLDIPEPKVHEILVKIQSISVNPVDTKQRLMDVSKAPRVLGFDAIGVVESVGNEVTMFNQGDIVYYSGSPDQNGSNAEYQLINERLVAKAPKNISAEQAVSLPLTGITAYETLFDVFGISRNRNENEGKTLLIINGAGGVGSIATQIAKAYGLRVITTASRNETIEWTKKMGADIVLNHKESLLNQFKTQGIELVDYVFCTFNTDMYYDDMIQLVKPRGHIATIVAFENDQDLNALKPKSLSFSHEFMFARPLNQTDDMIKHHEYLEDITNKVEQNIYQPTTTKVIEGLTTENIYQAHQILESNTMIGKLVINLNEGHHHHHH | soluble |
| AIAAESNQNTDGAVEEGEDENTGDSNLQMELSAFRAKWMSELQPSSGGQRSFSRNAELRRRQETAKEEKARELFLKAVEEEQNGAVYEAIKYYKSAMQLVPDIEFKINYSRTPDPERGGSYLESSENNREIDDLLTYFQHQLTLGNDAMKLCEHETETSQVHISALPFEVLMYIFRWVVSCDLDLRALEQLSLVCRGFYICARDPEIWRSACLRVWGRSCTKMLPYSSWREMFLERPRVRFDGVYISKTSYIRQGEESLDGFYRAWHQVEYYRYLRFFPDGQVMMLTTPEDPLVTVPRLRSKNSRMDSIMFGHYRLSQDTDNQTKVYVVVSKRKEEKVSEYQRSRFCRRNPVPEAERSFHVGLQLSSGGRQRFNKLVWIHHSCHITYRSTGETVVTAFDVDKMYTPLFFARVKSYTAFSERPL | soluble |
| MSLKRIKTVLAATDLSAPARHAAMRAALLAGQTDAKLGLLHVVDLQLMEHLRSFAGRSGEAAERRLIGEAMKELERLATDMTHRWGSAVEVRLVVGAVLKEIVAHADTLDADLLVMGARGAGFVRELLLGSTTERVLRLITRPVLMVKQIPHGPYQRVLVAVDFSERSVAALRLARWVAPEAHFVVLNAFQPPLENKLRQGGADEFEIMELRDAARRDADARMDEVMAHAGFPAERLTRLVLPGPALDCVLEQEQEQDCDLIVVGKHGYGWIEEMLLGSLTKHLLALSSCDVLVASQSREGHHHHHH | soluble |
| MGSDKIHHHHHHMSSDVQKGDNLETPGARDLLLQTASNIMREGDVVDISLSELSLRSGLNSALVKYYFGNKAGLLKALLDRDMENIVKSVDALLAKDDMSPEAKLRRHISKCIDTYYDYPYLNRLLMRLVRDSDEAEAKRIADQYLLPLHRAYNRFIGEGVKAGVFRPINPQLFYFTVTGAADRFFSARLVLKHCFDQDTLTEQLRDSYREHTVDFIMAGILAH | not soluble |
| MGSDKIHHHHHHMSETIQPGQTAVVLGAGGFLGSHVADALSNAGYKVRLFDRNPSPFRRSDQEMIIGDLMDISQVSNAVQGAAAVYNFAAIADIDEAHDNPLGTASINVLGNMHALEASRLAGVRRFIFASSVYVYSETGSFYRASKQAAERFTETYHERYGLEYTILRYGSLYGRRSDRRNGIYRMLHEAIQQRAITYRGSGESIREYIHVEDAARMSVQILAPEFANRHLILTGQEKLRIRDVMTMISEMLPWNVDLHYDQAKPGHHYQITPYAFQPRVGRKLVLNEHVDLGQGLLDCIQEIYQQISHGNEEGGTTPSSTDNQA | not soluble |
| GVADASDPIRPLVEALNAEAPLKLWSVLVTCLGDVSRDGVIEVSGVALSSFVERMGLQPQAMRVALHRLKRDGWVESRRLGRVGFHRLSDSALTQTRAVAGRIYGPGAGPAPWHLAGMPPDAPDGLSLLPDTLSATPISRRFALICGPLEDVPEDWLLTAPSGRGLPVWVQDVVVEAGCEAEFKALERTLAQIDKVPDTRLERFTLRVLVLHAWRRLILRSSPAAEAALGGARAEISCRARVHQLLDQLGSVEPDWDLPATEDAAS | soluble |
| MGSDKIHHHHHHMAKLETFYPIVATPKRAGYKEYLPSAVLTGYIRCFWEADDKNFPGNNLVVPDLCADIIFTIDSKTGLVTDAIFVGVSDAPFESDDESNTELFAVRFYAWSLFLFVEQDLTGSMNRVKEPEEMFAGFVSFFQERFAEMTTNMERIALLEEFLLRKLMMLGKQVHPDFLNGIDKLLQNPNQLALGAVSVRQLERLFQKHMGLAPKQTAKLIRFQKVLQALYENPSVPGAELAYLHGFTDQAHLIKQFKRYSNHTPEEMKQIFLQNVANIQ | not soluble |
| MKKVITYGTFDLLHWGHIKLLERAKQLGDYLVVAISTDEFNLQKQKKAYHSYEHRKLILETIRYVDEVIPEKNWEQKKQDIIDHNIDVFVMGDDWEGKFDFLKDQCEVVYLPRTEGISTTKIKEEIAGL | soluble |
| MILIADSGSTKTDWCVVLNGAVIKRLGTKGINPFFQSEEEIQQKLTASLLPQLPEGKFNAVYFYGAGCTPEKAPVLRRAIADSLPVIGNIKANSDMLAAAHGLCGQKAGIACILGTGSNSCFYNGKEIVSNISPLGFILGDEGSGAVLGKLLVGDILKNQLPATLKEEFLKQFDLTPPEIIDRVYRQPFPNRFLASLSPFIAQHLEEPAIRQLVMNSFIAFFRRNVMQYDYKQYPVHFIGSIAYCYKEILQDAARQTGIQIGKILQSPMEGLIQYHSQLSFHPLEHHHHHH | soluble |
| SDGPERDFNLKVVLISFKKCLTDKGEVLLDHYTASWKGLVRFLNSLGAVFSFISKDVVSKLQIMEHLRSGPQSEHYISLQSMVAYEVSNKLVDRDSRSRPRHPNSGCRTVLRLHRALHWLQLFLEGLRTSSEDARTSTLCSEAYNATLAAYHSWIVRQAVNVAFHALPPRKVFLEAMNMGSSEQAVEMLGEALPFIEQVYDISQKLYAEHSLLDLP | soluble |
| MASKKASGTLPPQQQVVHKVIMVGTGGVGKSALTLQFMYDEFVEEYEPTKADSYRKKVVLDGEECSIDILDTAGQEDYSAIRDNYYRSGEGFICVFSILDMESFEATNEFREQILRVKNSDSSVPIVLVGNKGDMRDQRVVSAELCRQRAEQWGCHYVETSAKRRENVDKVFYDLMREMKRRKGGSQAQTGIDASASSGRKKRSGIKKHCTIL | not soluble |
| MRISNGSGGDNVFTSGRFRRRGAATPLISLDFIVENGQGEILLGQRLNRPAQGYWFVPGGRVCKDETLEAAFARLTQAELGVRLPLAAGTFYGVWQHFYDDNFSGEDFSTHYIVLGFRLRVAESDLRLPDAQHGSYRWLTPEQLLASDNVHENSRAYFSPDAPAVGL | not soluble |
